The chains are these.
B1: Group 51 representative clone F083-302, Fab-PP-type antibody (Fab, V domains shown)
VH: QVQLVQSGAEVKKPGSSVKVSCEASGATFSSNAFSWVRQAPGQGPEWMGGIITMFRKAEYAQKFQGRVTITAGELGSTAYMEVRSLTFEDTAVYYCARHSGYHLIGYFDSWGQGTLVTVSS
VL: QSVLTQPPSVSAAPGQKVTISCSGTTSNIGNNYVSWYQQLPGAAPKLLIYDNNKRPSGIPDRFSGSKSDTSATLGITGLQTGDEADYYCGTWVSSLSVWVFGGGTKLTVLG
B2: Group 55 representative clone F083-305, Fab-PP-type antibody (Fab, V domains shown)
VH: EVQLVESGAEVKKPGSSVKVSCKASGSIFSNYAISWVRQAPGQGLEWMGGIVPMFGTTRFAQKFQGRVTITADESRSTAYMELNNLISEDTAVYYCARAPLIYNWYFDLWGRGTLVTVSS
VL: EIVLTQSPSFVSASVGDRVSITCRASQGISSWLAWYQQKPGKAPRLLIYGASNLQSGVPSRFSGSGSGTDYTLTINSLQPEDFATYYCQQARTFPVTFGQGTKLEIK
B3: Group 56 representative clone F083-318, Fab-PP-type antibody (Fab, V domains shown)
VH: B2 VH with E6Q, K23Q, S35N, M54I, V68L, S75P, F107Y
VL: EIVLTQSPSSLSASVGDRVTITCRASQGISNYLAWYQQKPGKVPKLLIYAASTLQSGVPSRFSGSGSGTDFTLTISSLQPEDVATYYCQKYNSAPHTFGPGTKVDIK
B4: Group 63 representative clone F083-336, Fab-PP-type antibody (Fab, V domains shown)
VH: QVQLQQSGAEVKQPGSSVKVSCKASGGIFRSNAISWVRQAPGQGLEWMGGIVALFGTANYAQKFQGRVTITADESTSTVYMELSSLRSEDTARYYCARNSGYHISGFYLDYWGQGTLVTVSS
VL: B3 VL with K39R, A50T, Q55L, S65G, F71Y, K90E, N92K, A94V, H96L, D105E
B5: Group 57 representative clone F083-103, Fab-PP-type antibody (Fab, V domains shown)
VH: QVQLQQSGADVKKAGSSVKVSCKASGRTFGNYAISWVRQAPGQGLEWMGGITPIFGAANYAQKFQGRVTISADLSTRMVYMDLSSLRSDDTAFYYCAGHPTYHYGSAMDYWGQGTLVTVSS
VL: QSVLTQPPSVSAAPGQKVTITCSGSSSNIGNNYVSWYQQLPGTAPKLLISEGSNRPSGIPDRFSGSKSGTSATLGITGLQTGDEATYYCATWDDSLSVVLFGGGTRLTVLS
B6: Group 59 representative clone F083-351, Fab-PP-type antibody (Fab, V domains shown)
VH: B5 VH with Q5V, T101M
VL: QSVLTQPPSASGTPGQRVSISCFGSRSNVGSSSVNWYQQLPGRAPKLLIQRNDQRPSGVPDRFSGSKSGTSASLAISGLQSDDESTYYCAAWDDSVKSVVFGGGTQLTVLG
B7: Group 80 representative clone F083-373, Fab-PP-type antibody (Fab, V domains shown)
VH: B5 VH with Q5V, A14P, K19R, R77T, H103Y, A107P
VL: EIVLTQSPSSLSASVGDRVTITCRASQSIATYLNWYQQKPGKAPNLLIYAASNLQSGVPSRFSGSGSGTDFTLTISSLQPEDFATYVCLQSYSATLTFGGGTKVEIK
B8: Group 58 representative clone F083-307, Fab-PP-type antibody (Fab, V domains shown)
VH: QVQLQQSGADVKKPGSSVKVSCKASGGTFGNYAISWVRQAPGQGLEWMGGITPIFGPANYAQRFQGRVTISADISTRTAYMELSSLRSEDTAIYYCARHPTYYFGSAMEYWGQGTLVTVSS
VL: SYELTQPPSVSVAPGQTATITCGGDRIGTGPVHWYQQRPGRAPVLIIYGSTHRPSGIPERFSGSKSVNTATLSISGVGVGDEADYYCQVWDTSTAQPIVFGGGTKLTVLS
B9: Group 62 representative clone F083-349, Fab-PP-type antibody (Fab, V domains shown)
VH: QVQLVQSGAEVRKPGSSVKVSCKASGVIFIKFAISWVRQAPGQGLEWMGGIIPMFGTTNYAQKFQGRVTITADGSTNTVYMELSSLTSEDTAVYYCAKEEGYYYGSGPLDSWGQGTLVTVSS
VL: DIVMTQSPDFLSVSLGERVTINCKSSQTVLNRSNNKNYLAWYQKKPGQPPRLLLYWSSTRESGVPDRFSGSGSETDFALTITNLQAEDLAVYFCQQFYDMPVTFGGGTKLEIK
B10: Group 38 representative clone F082-338, Fab-PP-type antibody (Fab, V domains shown)
VH: QVQLQESGAEVKKPGSSVKVSCKASGGPFRSHAISWVRQAAGQGLEWMGGITAVFGTANYAQKFQGRVTITADESTNIVSMELSSLRSEDTAIYYCARSLGYHTQYNGMDVWGQGTTVTVSS
VL: DVVMTQSPSSVSASVGDRVTITCRASQGISSWLAWYQQKPGKAPKLLIYAASSLQSGVPSRFSGSGSGTDFTLTISSLQPEDFATYYCQQANSFPITFGQGTRLEIK

Positions count from the first letter of the chain named.

The target in the first test is Influenza virus A/Suita/1/2009pdm (H1N1 2009 pandemic) (Influenza A virus A/Suita/1/2009pdm (H1N1pdm)). The test is described as follows: cell-based or functional assay.
In the case of B1, the Neutralizing activity (%) at 100 µg/ml was found to be 100% and the Neutralizing activity (%) at 250 µg/ml was found to be 100%.

As for B2, the Neutralizing activity (%) at 100 µg/ml stood at 88.3% and the Neutralizing activity (%) at 250 µg/ml came to 69.5%.

For the molecule B3, the Neutralizing activity (%) at 100 µg/ml stood at 13.5% and the Neutralizing activity (%) at 250 µg/ml came out at 27.9%.

With B4, the Neutralizing activity (%) at 100 µg/ml was determined as 100% and the Neutralizing activity (%) at 250 µg/ml came out at 100%.

Regarding B5, the Neutralizing activity (%) at 100 µg/ml amounted to 60.2% and the Neutralizing activity (%) at 250 µg/ml turned out to be 83.8%.

Regarding B6, the Neutralizing activity (%) at 100 µg/ml turned out to be 88.5% and the Neutralizing activity (%) at 250 µg/ml amounted to 85.6%.

As to B7, the Neutralizing activity (%) at 100 µg/ml stood at 1.9% and the Neutralizing activity (%) at 250 µg/ml came to 7.7%.

On to B8, for which the Neutralizing activity (%) at 100 µg/ml was found to be 76.6% and the Neutralizing activity (%) at 250 µg/ml was 54.8%.

Regarding B9, the Neutralizing activity (%) at 100 µg/ml stood at 97.1% and the Neutralizing activity (%) at 250 µg/ml came out at 91.3%.

B10: the Neutralizing activity (%) at 100 µg/ml stood at 100% and the Neutralizing activity (%) at 250 µg/ml amounted to 97.7%.

Another test addresses Influenza virus A/Panama/2007/1999 (H3N2) (Influenza A virus A/Panama/2007/1999 (H3N2)). The test is described as follows: cell-based or functional assay.
In the case of B1, the Neutralizing activity (%) at 100 µg/ml turned out to be 3.4% and the Neutralizing activity (%) at 250 µg/ml is -11%.

B2: the Neutralizing activity (%) at 100 µg/ml was -17.1% and the Neutralizing activity (%) at 250 µg/ml is -6.8%.

As for B3, the Neutralizing activity (%) at 100 µg/ml stood at 7.5% and the Neutralizing activity (%) at 250 µg/ml turned out to be 7.5%.

On to B4, for which the Neutralizing activity (%) at 100 µg/ml was -11% and the Neutralizing activity (%) at 250 µg/ml was -8.9%.

Take B5: the Neutralizing activity (%) at 100 µg/ml stood at 11% and the Neutralizing activity (%) at 250 µg/ml was found to be 13.7%.

For B6, the Neutralizing activity (%) at 100 µg/ml is -6.8% and the Neutralizing activity (%) at 250 µg/ml is -6.6%.

Consider B7, for which the Neutralizing activity (%) at 100 µg/ml is -6.9% and the Neutralizing activity (%) at 250 µg/ml was -21.2%.

As for B8, the Neutralizing activity (%) at 100 µg/ml is -6.8% and the Neutralizing activity (%) at 250 µg/ml worked out at 11.6%.

For B9, the Neutralizing activity (%) at 100 µg/ml came to 13.7% and the Neutralizing activity (%) at 250 µg/ml was -8.9%.

In the case of B10, the Neutralizing activity (%) at 100 µg/ml is -2.7% and the Neutralizing activity (%) at 250 µg/ml is -0.7%.

The target of another test is Influenza virus A/California/7/2009pdm (H1N1pdm) (Influenza A virus A/California/7/2009pdm (H1N1pdm)). The test is described as follows: cell-based or functional assay.
B1 returned an HI activity of more than 160 µg/mL.

The molecule B2 displayed an HI activity of more than 160 µg/mL.

Molecule B3 gave an HI activity of more than 160 µg/mL.

Take B4: the HI activity was more than 160 µg/mL.

For the molecule B5, the HI activity was more than 160 µg/mL.

In turn, B6 displayed an HI activity of more than 160 µg/mL.

As to B7, the HI activity is more than 160 µg/mL.

The molecule B8 registered an HI activity of more than 160 µg/mL.

On to B9, for which the HI activity is more than 160 µg/mL.

As to B10, the HI activity is more than 160 µg/mL.

The target in another test is Influenza virus A/Indonesia/5/2005/PR8-IBCDC-RG2 (H5N1) (Influenza A virus A/Indonesia/5/2005/PR8-IBCDC-RG2 (H5N1)). The test can be described thus: cell-based or functional assay.
With B1, the Neutralizing activity (%) at 100 µg/ml is 72.9% and the Neutralizing activity (%) at 250 µg/ml was found to be 85.9%.

Take B2: the Neutralizing activity (%) at 100 µg/ml was 2.4% and the Neutralizing activity (%) at 250 µg/ml stood at 22.4%.

On to B3, for which the Neutralizing activity (%) at 100 µg/ml is -9.5% and the Neutralizing activity (%) at 250 µg/ml was 1.7%.

Take B4: the Neutralizing activity (%) at 100 µg/ml was 98.8% and the Neutralizing activity (%) at 250 µg/ml was 100%.

B5: the Neutralizing activity (%) at 100 µg/ml is 30% and the Neutralizing activity (%) at 250 µg/ml was 61.2%.

For the molecule B6, the Neutralizing activity (%) at 100 µg/ml is -2.7% and the Neutralizing activity (%) at 250 µg/ml stood at 5.4%.

Consider B7, for which the Neutralizing activity (%) at 100 µg/ml was -3.3% and the Neutralizing activity (%) at 250 µg/ml was 15.4%.

For B8, the Neutralizing activity (%) at 100 µg/ml was found to be 28.8% and the Neutralizing activity (%) at 250 µg/ml turned out to be 31.8%.

Consider B9, for which the Neutralizing activity (%) at 100 µg/ml stood at 40.2% and the Neutralizing activity (%) at 250 µg/ml was determined as 83.9%.

Take B10: the Neutralizing activity (%) at 100 µg/ml was 67.1% and the Neutralizing activity (%) at 250 µg/ml is 85.3%.

The next test concerns the target Influenza virus A/Brisbane/59/2007 (H1N1) (Influenza A virus A/Brisbane/59/2007 (H1N1)). The test is described as follows: cell-based or functional assay.
On to B1, for which the HI activity was more than 160 µg/mL, the Neutralizing activity (%) at 100 µg/ml is 98% and the Neutralizing activity (%) at 250 µg/ml was found to be 98%.

Turning to B2, the HI activity was more than 160 µg/mL, the Neutralizing activity (%) at 100 µg/ml was found to be 96.1% and the Neutralizing activity (%) at 250 µg/ml turned out to be 96.1%.

In the case of B3, the HI activity is more than 160 µg/mL, the Neutralizing activity (%) at 100 µg/ml was 84.2% and the Neutralizing activity (%) at 250 µg/ml amounted to 92.1%.

As to B4, the HI activity was more than 160 µg/mL, the Neutralizing activity (%) at 100 µg/ml stood at 100% and the Neutralizing activity (%) at 250 µg/ml is 100%.

With B5, the HI activity is more than 160 µg/mL, the Neutralizing activity (%) at 100 µg/ml worked out at 84.2% and the Neutralizing activity (%) at 250 µg/ml was 92.1%.

For B6, the HI activity was more than 160 µg/mL, the Neutralizing activity (%) at 100 µg/ml was 100% and the Neutralizing activity (%) at 250 µg/ml is 100%.

With B7, the HI activity was more than 160 µg/mL, the Neutralizing activity (%) at 100 µg/ml was 70.4% and the Neutralizing activity (%) at 250 µg/ml was 74.3%.

For B8, the HI activity was more than 160 µg/mL, the Neutralizing activity (%) at 100 µg/ml came to 100% and the Neutralizing activity (%) at 250 µg/ml turned out to be 100%.

As for B9, the HI activity was more than 160 µg/mL, the Neutralizing activity (%) at 100 µg/ml is 92.1% and the Neutralizing activity (%) at 250 µg/ml amounted to 92.1%.

As to B10, the HI activity is more than 160 µg/mL, the Neutralizing activity (%) at 100 µg/ml is 100% and the Neutralizing activity (%) at 250 µg/ml turned out to be 100%.

The values are drawn from US20160200799A1.
